Kd, koff and kon data for 3 molecules are collected here from patent publication US20260209363A1 (Chugai, published 2026).

Experiment [1] addresses T1, human soluble IL-6R (human, UniProt P08887 20-357, limits assumed).
T1 construct: Soluble form; also called sIL6R; Human IL-6R
T1 sequence (looked up): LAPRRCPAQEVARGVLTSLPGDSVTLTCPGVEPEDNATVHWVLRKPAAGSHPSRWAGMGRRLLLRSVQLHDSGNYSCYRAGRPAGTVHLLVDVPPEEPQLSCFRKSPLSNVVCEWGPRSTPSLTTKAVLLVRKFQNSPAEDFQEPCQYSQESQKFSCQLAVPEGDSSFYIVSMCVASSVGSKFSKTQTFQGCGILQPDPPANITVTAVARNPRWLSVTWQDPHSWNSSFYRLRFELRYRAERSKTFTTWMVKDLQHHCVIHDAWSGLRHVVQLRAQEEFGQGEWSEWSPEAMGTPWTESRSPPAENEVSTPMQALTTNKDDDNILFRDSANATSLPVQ
Kind of experiment: SPR (Biacore T200), antibody captured on Protein G, human IL-6R as analyte, 37 degrees C, no albumin. As for the experimental part:
Binding activities of the produced albumin switch molecules against human IL-6R were evaluated using Biacore T200 (Cytiva). As the running buffer, 50 mM Na Phosphate (pH 7.4), 150 mM NaCl, 0.05% Tween20 was used, and the evaluation was performed at 37 degrees C. First, Protein G (CALBIOCHEM) was used as a ligand-capturing molecule. Protein G (CALBIOCHEM) was solid-phased on a Series S Sensor Chip CM4 (Cytiva) using an Amine Coupling Kit (Cytiva). Antibody solution prepared using the running buffer was allowed to interact with this CM4 sensor chip to capture approximately 200 RU of the antibody. Human IL-6R used in the present measurement was prepared by an approach described in WO2018097307 (Example 3-2). Human IL-6R was diluted to 0, 100, and 400 nM with the running buffer, and allowed to bind to the captured antibody. The chip was regenerated using 3 M MgCl₂, and measurements were performed by repeatedly capturing the antibodies. Dissociation constant (KD) of each antibody for human IL-6R was calculated using Biacore T200 Evaluation Software 2.0. Specifically, the association rate constant ka (L/mol/s) and the dissociation rate constant kd (1/s) were calculated by global fitting of the sensorgrams obtained by measurement with the 1:1 Langmuir binding model, and the dissociation constant KD (mol/L) was calculated from these values.
On the technique in general: Surface plasmon resonance follows binding to a sensor surface in real time, without labels.

The target of experiment [2] is T1, human soluble IL-6R. The experiment in a line: in vivo KD in mouse plasma (albumin present), from total antibody, free and bound sIL6R 5 min after sIL6R; antibody 1 mg/kg IV. As for the experimental part:
Next, free sIL6R in plasma was measured. The concentration of free sIL6R in plasma was measured on a fully automated ELISA system (Gyrolab xP workstation). First, sIL6R prepared at 23.4, 46.9, 93.8, 188, 375, 750, and 1500 ng/mL using a Protein-Free (PBS) Blocking Buffer (Thermo Scientific) was used as solutions for preparing the calibration curve. Mouse plasma samples were used in the measurements without diluting them. A solution of biotin-labeled H54 diluted to 10 micro g/mL using a Protein-Free (PBS) Blocking Buffer was used as a solution of the sIL6R-capturing molecule. Alexa Fluor (registered trademark) 647-labeled anti-human IL-6R antibody (R&D Systems) diluted to 1 micro g/mL using a Protein-Free (PBS) Blocking Buffer was used as a solution of the human IL-6R-detection molecule. PBS (pH 7.4) containing 0.05% TWEEN was used as a washing solution. The calibration curve solutions, mouse plasma samples, sIL6R-capturing molecule solution, sIL6R-detection molecule solution, and the washing solution were placed onto a PCR plate, and then the PCR plate was sealed with a plate sealer. After the PCR plate and the Bioaffy 200 disc were placed in the Gyrolab xP workstation, measurements were taken. Using the data processed by the Gyros Evaluater 3.6.2.30 software and the calibration curve concentrations, the concentration of free sIL6R in plasma was calculated by logistic regression using the XLfit 5.5.0.5 software.
Additionally, bound sIL6R in plasma was measured. The concentration of bound sIL6R in plasma was measured on an electrospray ionization mass spectrometer connected to a high-performance liquid chromatography (LC/ESI-MS/MS). First, H54//IC17 and sIL6R were mixed, and solutions for preparing the calibration curve of bound sIL6R were prepared at theoretical plasma concentrations of 0.0468, 0.467, 4.60, and 20.1 nmol/mL. The solutions for preparing the calibration curve and 1 or 2 micro L of a plasma sample were added to 75 or 150 micro g of magnetic beads (Magnosphere MS300/Carboxyl, JSR) to which anti-delta GK antibodies were solid-phased, and this was shaken at 25 degrees C. for one hour.

A further experiment concerns the target T2, Mouse MOG (R&D system) (mouse, UniProt Q61885 29-156, limits assumed).
T2 construct: also called mouse soluble MOG; soluble MOG
T2 sequence (looked up): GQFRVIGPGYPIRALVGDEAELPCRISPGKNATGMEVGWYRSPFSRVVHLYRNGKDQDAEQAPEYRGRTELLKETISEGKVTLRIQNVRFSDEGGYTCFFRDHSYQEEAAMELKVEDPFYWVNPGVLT
The experiment in a line: SPR (Biacore T200), antibody captured by anti-human Fc antibody, mouse MOG as analyte, 25 degrees C, no albumin. As for the experimental part:
Binding activities of the antibodies produced in Example 10 against mouse MOG were assessed using Biacore T200 (Cytiva).
As the running buffer, 50 mM Na Phosphate (pH 7.4), 150 mM NaCl, 0.05% Tween 20, and 0.005% NaN₃ was used, and the assessment was performed at 25 degrees C. First, anti-human Fc antibody (Cytiva) was used as a ligand-capturing molecule. Anti-human Fc antibody (Cytiva) was solid-phased on a Series S Sensor Chip CM4 (Cytiva) using an Amine Coupling Kit (Cytiva). Antibody solutions prepared using the running buffer was allowed to interact with this CM4 sensor chip to capture approximately 480 RU of the antibody. Mouse MOG (R&D system) was diluted to 0, 10, 40, 160, and 640 nM with the running buffer, and then bound to the captured antibody. The chip was regenerated using 3 M MgCl₂, and measurements were performed by repeatedly capturing antibodies. Dissociation constant (KD) of the respective antibodies for mouse MOG was calculated using Biacore T200 Evaluation Software 2.0. Specifically, the association rate constant ka (L/mol/s) and the dissociation rate constant kd (1/s) were calculated by global fitting of the sensorgrams obtained by measurement with the 1:1 Langmuir binding model, and the dissociation constant KD (mol/L) was calculated from these values.

A further experiment has as its target T3, mouse albumin (mouse, UniProt P07724 25-608).
T3 construct: also called recombinant mouse Albumin; mouse serum albumin
The experiment in a line: SPR (Biacore T200), antibody captured by anti-human Fc antibody, mouse albumin as analyte, 25 degrees C. As for the experimental part:
Binding activities of the produced antibodies against mouse albumin were evaluated using Biacore T200 (Cytiva).
As the running buffer, 50 mM Na Phosphate (pH 7.4), 150 mM NaCl, 0.05% Tween20 was used, and the evaluation was performed at 25 degrees C. First, anti-human Fc antibody (Cytiva) was used as a ligand-capturing molecule. Anti-human Fc antibody (Cytiva) was solid-phased on a Series S Sensor Chip CM4 (Cytiva) using an Amine Coupling Kit (Cytiva). Antibody solution prepared using the running buffer was allowed to interact with this CM4 sensor chip to capture approximately 120 RU of the antibody. Mouse albumin (Bioscience) was diluted to 0 and 300 nM with the running buffer and allowed to bind to the captured antibody. The chip was regenerated using 3 M MgCl₂, and measurements were performed by repeatedly capturing the antibodies. Dissociation constant (KD) of each antibody for mouse albumin was calculated using Biacore T200 Evaluation Software 2.0. Specifically, the association rate constant ka (L/mol/s) and the dissociation rate constant kd (1/s) were calculated by global fitting of the sensorgrams obtained by measurement with the 1:1 Langmuir binding model, and the dissociation constant KD (mol/L) was calculated from these values.

B1: H54//IC17 (bispecific antibody, human IgG1, kappa)
heavy 1: QVQLQESGPGLVKPSETLSLTCAVSGYSISDDQAWSWVRQPPGEGLEWIGYISYSGITNYNPSLKGRVTISRDTSKNQFSLKLSSVTAADTAAYYCARSLARTTAMDYWGEGTLVTVSSASTKGPSVFPLAPSSKSTSGGTAALGCLVEDYFPEPVTVSWNSGALTSGVHTFPAVLQSSGLYSLSSVVTVPSSSLGTQTYICNVNHKPSNTKVDERVEPKSCDKTHTCPPCPAPELRRGPSVFLFPPKPKDTLMISRTPEVTCVVVDVSHEDPEVKFNWYVDGVEVHNAKTKPREEQYNSTYRVVSVLTVLHQDWLNGKEYKCKVSNKALPAPIEKTISKAKGQPREPQVCTLPPSREEMTKNQVSLSCAVKGFYPSDIAVEWESNGQPENNYKTTPPVLDSDGSFFLVSKLTVDKSRWQQGNVFSCSVMHEALHNHYTQKSLSLSP
light 1: DIQMTQSPSSLSASVGDSVTITCQASQDISSYLNWYQQKPGKAPELLIYYGSELHSGVPSRFSGSGSGTDFTFTISSLEAEDAATYYCQQGNSLPYTFGQGTKVEIERTVAAPSVFIFPPSDRKLKSGTASVVCLLNNFYPREAKVQWKVDNALQSGNSQESVTEQDSKDSTYSLSSTLTLSKADYEKHKVYACEVTHQGLSSPVTKSFNRGEC
heavy 2: not shown
light 2: QVQLQQSGPQLVRPGASVKISCKASGYSFTSYWMHWVNQRPGQGLEWIGMIDPSYSETRLNQKFKDKATLTVDKSSSTAYMQLSSPTSEDSAVYYCALYGNYFDYWGQGTTLTVSSASVAAPSVFIFPPSDEQLKSGTASVVCLLNNFYPREAKVQWKVDNALQSGNSQESVTEQDSKDSTYSLSSTLTLSKADYEKHKVYACEVTHQGLSSPVTKSFNRGEC
notes: Heavy chain constant regions lack the C-terminal glycine and lysine; also called anti-human IL-6R/KLH bispecific antibody
As usually defined, the Kd is a measure of binding affinity in units of concentration. High values mean weaker binding, low ones tighter binding. A word on the koff: it is the first-order rate constant of dissociation. As usually defined, the kon is a measure of how fast the partners come together. Consider B1, for which, in the experiment with human soluble IL-6R [1], the Kd turned out to be 3.41 nM, the koff was 0.00141 s⁻¹ and the kon came to 412000 M⁻¹ s⁻¹. In the experiment with human soluble IL-6R [2], binding was characterised by a dissociation constant (Kd) of 1.3 nM.

B2: MOG//IC17 (bispecific antibody, human IgG1, kappa)
heavy 1: RVTLRESGPTLVKPTQTLTLTCTFSGFSLSTSGVGVGWIRQPPGKALEWLALIFWDDDSHYSPSLKSRLTITKDTSKNQVVLTMTNMDPVDTATYYCARYYFGSGSYFPSYWYFDLWGRGTLVTVSSASTKGPSVFPLAPSSKSTSGGTAALGCLVEDYFPEPVTVSWNSGALTSGVHTFPAVLQSSGLYSLSSVVTVPSSSLGTQTYICNVNHKPSNTKVDERVEPKSCDKTHTCPPCPAPELRRGPSVFLFPPKPKDTLMISRTPEVTCVVVDVSHEDPEVKFNWYVDGVEVHNAKTKPREEQYNSTYRVVSVLTVLHQDWLNGKEYKCKVSNKALPAPIEKTISKAKGQPREPQVCTLPPSREEMTKNQVSLSCAVKGFYPSDIAVEWESNGQPENNYKTTPPVLDSDGSFFLVSKLTVDKSRWQQGNVFSCSVMHEALHNHYTQKSLSLSP
light 1: not shown
heavy 2: not shown
light 2: QVQLQQSGPQLVRPGASVKISCKASGYSFTSYWMHWVNQRPGQGLEWIGMIDPSYSETRLNQKFKDKATLTVDKSSSTAYMQLSSPTSEDSAVYYCALYGNYFDYWGQGTTLTVSSASVAAPSVFIFPPSDEQLKSGTASVVCLLNNFYPREAKVQWKVDNALQSGNSQESVTEQDSKDSTYSLSSTLTLSKADYEKHKVYACEVTHQGLSSPVTKSFNRGEC
notes: also called MOG307//IC17; IC17//MOG307
As to B2, in the experiment with Mouse MOG (R&D system), the Kd came to 0.452 nM, the koff was determined as 6.99e-05 s⁻¹ and the kon worked out at 155000 M⁻¹ s⁻¹.

B3: ABD094(H)-H54//IC17 (bispecific antibody, human IgG1, kappa)
heavy 1: LAEAKEAANAELDSYGVSDFYKRLIDKAKTVEGVEALKDAILAALPQVQLQESGPGLVKPSETLSLTCAVSGYSISDDQAWSWVRQPPGEGLEWIGYISYSGITNYNPSLKGRVTISRDTSKNQFSLKLSSVTAADTAAYYCARSLARTTAMDYWGEGTLVTVSSASTKGPSVFPLAPSSKSTSGGTAALGCLVEDYFPEPVTVSWNSGALTSGVHTFPAVLQSSGLYSLSSVVTVPSSSLGTQTYICNVNHKPSNTKVDERVEPKSCDKTHTCPPCPAPELRRGPSVFLFPPKPKDTLMISRTPEVTCVVVDVSHEDPEVKFNWYVDGVEVHNAKTKPREEQYNSTYRVVSVLTVLHQDWLNGKEYKCKVSNKALPAPIEKTISKAKGQPREPQVCTLPPSREEMTKNQVSLSCAVKGFYPSDIAVEWESNGQPENNYKTTPPVLDSDGSFFLVSKLTVDKSRWQQGNVFSCSVMHEALHNHYTQKSLSLSP
light 1: DIQMTQSPSSLSASVGDSVTITCQASQDISSYLNWYQQKPGKAPELLIYYGSELHSGVPSRFSGSGSGTDFTFTISSLEAEDAATYYCQQGNSLPYTFGQGTKVEIERTVAAPSVFIFPPSDRKLKSGTASVVCLLNNFYPREAKVQWKVDNALQSGNSQESVTEQDSKDSTYSLSSTLTLSKADYEKHKVYACEVTHQGLSSPVTKSFNRGEC
heavy 2: not shown
light 2: QVQLQQSGPQLVRPGASVKISCKASGYSFTSYWMHWVNQRPGQGLEWIGMIDPSYSETRLNQKFKDKATLTVDKSSSTAYMQLSSPTSEDSAVYYCALYGNYFDYWGQGTTLTVSSASVAAPSVFIFPPSDEQLKSGTASVVCLLNNFYPREAKVQWKVDNALQSGNSQESVTEQDSKDSTYSLSSTLTLSKADYEKHKVYACEVTHQGLSSPVTKSFNRGEC
In the case of B3, in the experiment with human soluble IL-6R [1], the affinity, expressed as Kd, was 5.21 nM; the koff came to 0.00133 s⁻¹; the kon came to 255000 M⁻¹ s⁻¹. In the experiment with mouse albumin, this molecule yielded a dissociation constant Kd of 14.3 nM, a koff of 0.00103 s⁻¹ and a kon of 71800 M⁻¹ s⁻¹. Also, binding with human soluble IL-6R [2] was characterised by a dissociation constant (Kd) of 3.6 nM.
